Experimental data: publication PMC2704394 (2009)

B1: full length S. pombe Pik1, wild type [S. pombe] / purified Cdc4 protein [S. pombe] (parent complex)
chain 1: MPSSNSGNELLLRFFESAHFTSQLCVAYLSRYPNNIGIHHFLCEKLATFPYEEIEFFIPQLIHLVLNKDSESVALEEFIISQCEQNTQCALITFWYLQAHMVDLGLQPHSSCFKICKRLYNRIQILVFMSSSSLIQSQQKISENVTPALILSGIMLGGVCVPELLKKAGPIAIAQGRKAPRQDPDESDVDVLRRLSTEPRYSLDVLRSSLNNSIVEQHSEVSLRLKAPELTRTHSYQSSATLSIDEQRRVLRSNYFQQEIQFLFALQDISIRLIIVPRQARLSSLRAELALLNNNLPADVNIPLLRSYHKEVSHKIVRIDPKEATILNSAERVPYLIMVEVLSGELSFEPQSKKNKAKVQKIVSHKNQRKRWFDLTDVDPYTNLQDSTDNDISESESEGGDLSMSPLIKGLVPDTLSLSKSFSSFGNVSLQVPSSHRDTDVVLLSGRHSDSDGNGALKRSKIYASEITARMRAAATMLSQLDAEGSRRPKAETERIKNSIILDMQRLEEERLNEPSIYPVSVDISCAEDLRFGKETQKAERKGDRDDPSAATFQEDWYAKKERIRKSSPYGHYPNWDLVSVIVKTGADLRQETFACQLIYAFQRVWLECKEKVWVRRMKILVTGDNSGLIETITNAISVHSIKKNLTKQLREAELAQGKIAGKNVVTLKDYFIKQFGDPNSSRYRQAQTNFLQSLVAYSIISYLLQLKDRHNGNVLIDSEGHIIHIDFGFLLTNTPGNVGFESAPFKLTADYLEILDDRFDEYRSLMKAAFKSVRKNADQIILLVEVMQNNSTMPCFRAGENTSAQLLQRFQLQLGDKECDDFVDLLIQKANCSVWTRLYDLFQNITNGIY
chain 2: MSTDDSPYKQAFSLFDRHGTGRIPKTSIGDLLRACGQNPTLAEITEIESTLPAEVDMEQFLQVLNRPNGFDMPGDPEEFVKGFQVFDKDATGMIGVGELRYVLTSLGEKLSNEEMDELLKGVPVKDGMVNYHDFVQMILAN

Variants of: B1
Experiment: sandwich ELISA; about 56 µg lysate protein (highest point of 2-fold serial dilution); cells grown in the absence of thiamine; Cdc4-coated wells; parent: 0.27; read off a plot

| response | Variant |
| --- | --- |
| ~0.027 Absorbance | chain 1 R838A |
